Source: US20170305994A1 (Novo Nordisk, published 2017)
Residue numbers refer to the chain shown, from its start. Numbers in names are those of the source.

Columns and labels:
[1] = biological target: T1, human DR3 (full length, on cells) (human, UniProt Q93038 25-417); assay: cell-based or functional assay
T1 sequence: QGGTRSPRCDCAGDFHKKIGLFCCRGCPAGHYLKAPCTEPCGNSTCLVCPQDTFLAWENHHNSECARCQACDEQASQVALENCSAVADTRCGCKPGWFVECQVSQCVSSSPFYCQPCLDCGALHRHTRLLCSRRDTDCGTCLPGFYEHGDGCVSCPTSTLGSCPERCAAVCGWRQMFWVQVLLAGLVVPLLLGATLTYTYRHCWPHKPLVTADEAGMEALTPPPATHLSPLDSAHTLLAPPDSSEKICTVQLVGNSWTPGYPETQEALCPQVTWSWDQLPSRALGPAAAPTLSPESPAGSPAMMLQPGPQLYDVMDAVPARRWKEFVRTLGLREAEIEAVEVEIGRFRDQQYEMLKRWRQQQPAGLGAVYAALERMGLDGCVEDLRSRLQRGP

[2] = biological target: T1, human DR3 (full length, on cells); assay: cell-based or functional assay; remark: listed apart in the source
human DR3 R29Q = biological target: T2, human DR3 R29Q (human, UniProt Q93038 25-417); assay: cell-based or functional assay
T2 sequence: T1 sequence with R5Q

human DR3 I43N = biological target: T3, human DR3 I43N (human, UniProt Q93038 25-417); assay: cell-based or functional assay
T3 sequence: T1 sequence with I19N

human DR3 L45V = biological target: T4, human DR3 L45V (human, UniProt Q93038 25-417); assay: cell-based or functional assay
T4 sequence: T1 sequence with L21V

human DR3 I43N/L45V = biological target: T5, human DR3 I43N/L45V (human, UniProt Q93038 25-417); assay: cell-based or functional assay
T5 chain: T1 sequence with I19N, L21V

[3] = biological target: T6, human DR3 with the death domain deleted (ΔM339-P417 of SEQ ID NO:1), expressed on CHOK1SV cells (human, UniProt Q93038 25-338); assay: FACS on DR3 expressing cells; competitor Mab 0107
T6 construct: also called truncated DR3; hDR3 expressing CHO cells
T6 sequence: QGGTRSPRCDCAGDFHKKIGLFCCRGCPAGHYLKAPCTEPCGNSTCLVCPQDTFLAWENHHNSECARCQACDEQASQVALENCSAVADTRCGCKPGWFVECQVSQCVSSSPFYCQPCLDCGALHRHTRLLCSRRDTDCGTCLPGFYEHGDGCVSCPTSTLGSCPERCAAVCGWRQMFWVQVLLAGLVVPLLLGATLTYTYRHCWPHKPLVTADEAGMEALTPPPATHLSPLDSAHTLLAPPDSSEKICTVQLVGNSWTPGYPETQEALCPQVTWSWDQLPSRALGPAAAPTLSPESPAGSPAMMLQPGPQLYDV

IC50, TNFalpha inhibition, TL1A-activated CD4+ T cells, donor 1 [1]: 0.3 nM | IC50, TNFalpha inhibition, TL1A-activated CD4+ T cells, donor 2 [1]: 0.17 nM | IC50, TNFalpha inhibition, average (n 3) [1]: 0.189 nM | max % inhibition of TNFalpha, donor 1 [1]: 92.2% | max % inhibition of TNFalpha, donor 2 [1]: 82.3% | IC50 of Fab upon stimulation by TL1A, transient reporter [2]: 0.645 nM | IC50 of Fab upon stimulation by TL1A, transient reporter (human DR3 R29Q): 0.372 nM | IC50 of Fab upon stimulation by TL1A, transient reporter (human DR3 I43N): 68 nM | IC50 of Fab upon stimulation by TL1A, transient reporter (human DR3 L45V): 2 nM | IC50 of Fab upon stimulation by TL1A, transient reporter (human DR3 I43N/L45V): 149 nM
B1: 0228 (humanized Fab of 27F44, IgG4, hz0072VH S49A / hz0072VL) (Fab, V domains shown)
VH: EVQLVESGGGLVQPGGSLRLSCAASGFTFSNYDMSWVRQATGKGLEWVAAFSSDGYTFYPGSVKGRFTISRENAKNSLYLQMNSLRAGDTAVYYCARHADYANYPVMDYWGQGTLVTVSS
VL: DIQMTQSPSSLSASVGDRVTITCRASKSVSTSGYSYMHWYQQKPGKAPKLLIYLASNLESGVPSRFSGSGSGTDFTLTISSLQPEDFATYYCQHSRELPLTFGGGTKVEIKR
notes: IgG4-Cys, hz (humanized IgG4 Fab with the hinge cysteine kept)
molar ratio Mab/Fab from which the Fab inhibits [3]: 1 Fab per Mab (molar ratio Mab/Fab 1:n)
